In patent US20230147840A1 (Chugai, published 2023):
Like-named read-outs stand apart in the source and are kept apart here.

T1: Human CD3eg linker (human)
T1 construct: Single-chain soluble construct; also called recombinant human CD3
T1 chain: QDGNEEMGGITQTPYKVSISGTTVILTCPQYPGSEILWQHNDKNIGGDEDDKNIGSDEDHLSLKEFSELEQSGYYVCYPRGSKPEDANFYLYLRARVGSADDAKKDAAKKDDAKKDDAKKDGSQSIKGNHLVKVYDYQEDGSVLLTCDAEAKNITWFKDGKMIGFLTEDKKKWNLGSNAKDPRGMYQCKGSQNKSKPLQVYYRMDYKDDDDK


Legend:
[1] = molecular target: T2, Human CD137 extracellular domain (ECD) (human); assay: SPR Biacore 8K, Ab captured on anti-human Fc, CD137 as analyte, 37 C
T2 construct: also called Human CD137 ECD; recombinant human CD137
T2 sequence (chain, as listed by the source limits assumed): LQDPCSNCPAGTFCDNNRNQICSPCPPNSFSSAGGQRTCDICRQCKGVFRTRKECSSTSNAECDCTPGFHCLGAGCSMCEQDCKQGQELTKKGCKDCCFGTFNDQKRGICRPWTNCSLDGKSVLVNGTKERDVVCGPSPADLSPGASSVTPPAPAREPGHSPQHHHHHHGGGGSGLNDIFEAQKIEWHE
Experimental: (§1) Binding affinity of Dual-Ig antibodies to human CD3 were assessed at 25 degrees C. using Biacore 8K instrument (GE Healthcare). Anti-human Fc (GE Healthcare) was immobilized onto all flow cells of a CM4 sensor chip using amine coupling kit (GE Healthcare). Antibodies were captured onto the anti-Fc sensor surfaces, then recombinant human CD3 or CD137 was injected over the flow cell. All antibodies and analytes were prepared in ACES pH 7.4 containing 20 mM ACES, 150 mM NaCl, 0.05% Tween 20, 0.005% NaN₃. Sensor surface was regenerated each cycle with 3M MgCl₂. […] CD137 binding affinity assay was conducted in same condition except assay temperature was set at 37 degrees C.

Human CD3eg linker [2] = molecular target: T1, Human CD3eg linker; assay: SPR Biacore 8K, Ab captured on anti-human Fc, CD3 as analyte, 25 C
Experimental: as §1

Human CD3eg linker [3] = molecular target: T1, Human CD3eg linker; assay: as above
Experimental: (§2) Binding affinity of Dual-Fab antibodies (Dual-Ig) to human CD3 were assessed at 25 degrees C. using Biacore 8K instrument (GE Healthcare). Anti-human Fc (GE Healthcare) was immobilized onto all flow cells of a CM4 sensor chip using amine coupling kit (GE Healthcare). Antibodies were captured onto the anti-Fc sensor surfaces, then recombinant human CD3 or CD137 was injected over the flow cell. All antibodies and analytes were prepared in ACES pH 7.4 containing 20 mM ACES, 150 mM NaCl, 0.05% Tween 20, 0.005% NaN₃. Sensor surface was regenerated each cycle with 3M MgCl₂. […] CD137 binding affinity assay was conducted in same condition except assay temperature was set at 37 degrees C.

[4] = molecular target: T2, Human CD137 extracellular domain (ECD); assay: SPR Biacore 8K, Ab captured on anti-human Fc, CD137 as analyte, 37 C; remark: listed apart in the source
Experimental: as §2

[5] = molecular target: T2, Human CD137 extracellular domain (ECD); assay: SPR Biacore 8K, 37 C; reference xGPC3/DualAE05-xSG1350kSG1349hV11
Experimental: as §1
This is caused by faster off rate in FAST-Ig construct. […] This is caused by faster off rate in FAST-Ig construct.

Kd [1] | koff [1] | kon [1] | Kd (Human CD3eg linker [2]) | koff (Human CD3eg linker [2]) | kon (Human CD3eg linker [2]) | Kd (Human CD3eg linker [3]) | koff (Human CD3eg linker [3]) | kon (Human CD3eg linker [3]) | Kd [4] | koff [4] | kon [4] | fold weaker binding affinity than CrossMab prepared antibodies [5] | Binder
40.5 nM | 0.000525 s⁻¹ | 13000 M⁻¹ s⁻¹ | 296 nM | 0.0275 s⁻¹ | 92900 M⁻¹ s⁻¹ |  |  |  |  |  |  |  | xGPC3/DualAE05-xSG1350k1349hV11 (bispecific antibody, V domains shown, 1+1 tri-specific, CrossMab format (VH/VL of the GPC3 arm exchanged, charge mutations in CH1/CL of the Dual arm); also called xGPC3/DualAE05-xSG1350kSG1349hV11; AE05 CrossMab) VH 1: QVQLVQSGAEVKKPGASVTVSCKASGYTFTDYEMHWIRQPPGEGLEWIGAIDGPTPDTAYSEKFKGRVTLTADKSTSTAYMELSSLTSEDTAVYYCTRFYSYTYWGQGTLVTVSS VL 1: DIVMTQSPLSLPVTPGEPASISCRSSQPLVHSNRNTYLHWYQQKPGQAPRLLIYKVSNRFSGVPDRFSGSGSGTDFTLKISRVEAEDVGVYYCGQGTQVPYTFGQGTKLEIK VH 2: QVQLVESGGGLVQPGRSLRLSCAASGFKFSNVWFHWVRQAPGKGLEWVAQIKDYYNAYAAYYAPSVKGRFTISRDDSKNSIYLQMNSLKTEDTAVYYCHYVHYASASTLLPAEGVDAWGQGTTVTVSS VL 2: DIVMTQSPLSLPVTPGEPASISCQPSQEVVHMNRNTYLHWYQQKPGQAPRLLIYKVSNRFPGVPDRFSGSGSGTDFTLKISRVEAEDVGVYYCAQGTSHPFTFGQGTKLEIK
 |  |  |  |  |  | 286 nM | 0.028 s⁻¹ | 97700 M⁻¹ s⁻¹ | 52.1 nM | 0.000722 s⁻¹ | 13900 M⁻¹ s⁻¹ |  | H1572L0581 (antibody, V domains shown, Dual-Ig with an Fc; also called DualAE26; dBBDu183H1572/dBBDu072L0581) VH: QVQLVESGGGLVQPGRSLRLSCAASGFKFSNVWFHWVRQAPGKGLEWVAQIKDKYNAYAAYYAPSVKGRFTISRDDSKNSIYLQMNSLKTEDTAVYYCHYVHYASASTLLPAEGVDAWGQGTTVTVSS VL: DIVMTQSPLSLPVTPGEPASISCQPSQEVVHMNRNTYLHWYQQKPGQAPRLLIYKVSNRFPGVPDRFSGSGSGTDFTLKISRVEAEDVGVYYCAQGTSHPFTFGQGTKLEIK
54.7 nM | 0.000745 s⁻¹ | 13600 M⁻¹ s⁻¹ | 282 nM | 0.0263 s⁻¹ | 93400 M⁻¹ s⁻¹ |  |  |  |  |  |  | ~2 fold | GPC3/DualAE05-SG1364k1363hV11 (bispecific antibody, V domains shown, 1+1 tri-specific, FAST-Ig format; Same variable regions as m28, different constant-region charge mutations; Full chains not tied by name) VH 1: QVQLVQSGAEVKKPGASVTVSCKASGYTFTDYEMHWIRQPPGEGLEWIGAIDGPTPDTAYSEKFKGRVTLTADKSTSTAYMELSSLTSEDTAVYYCTRFYSYTYWGQGTLVTVSS VL 1: DIVMTQSPLSLPVTPGEPASISCRSSQPLVHSNRNTYLHWYQQKPGQAPRLLIYKVSNRFSGVPDRFSGSGSGTDFTLKISRVEAEDVGVYYCGQGTQVPYTFGQGTKLEIK VH 2: QVQLVESGGGLVQPGRSLRLSCAASGFKFSNVWFHWVRQAPGKGLEWVAQIKDYYNAYAAYYAPSVKGRFTISRDDSKNSIYLQMNSLKTEDTAVYYCHYVHYASASTLLPAEGVDAWGQGTTVTVSS VL 2: DIVMTQSPLSLPVTPGEPASISCQPSQEVVHMNRNTYLHWYQQKPGQAPRLLIYKVSNRFPGVPDRFSGSGSGTDFTLKISRVEAEDVGVYYCAQGTSHPFTFGQGTKLEIK
79.5 nM | 0.00102 s⁻¹ | 12800 M⁻¹ s⁻¹ | 314 nM | 0.0278 s⁻¹ | 88500 M⁻¹ s⁻¹ |  |  |  |  |  |  | ~2 fold | GPC3/DualAE05-SG1363k1364hV11 (bispecific antibody, V domains shown, 1+1 tri-specific, FAST-Ig format) VH 1: QVQLVQSGAEVKKPGASVTVSCKASGYTFTDYEMHWIRQPPGEGLEWIGAIDGPTPDTAYSEKFKGRVTLTADKSTSTAYMELSSLTSEDTAVYYCTRFYSYTYWGQGTLVTVSS VL 1: DIVMTQSPLSLPVTPGEPASISCRSSQPLVHSNRNTYLHWYQQKPGQAPRLLIYKVSNRFSGVPDRFSGSGSGTDFTLKISRVEAEDVGVYYCGQGTQVPYTFGQGTKLEIK VH 2: QVQLVESGGGLVQPGRSLRLSCAASGFKFSNVWFHWVRQAPGKGLEWVAQIKDYYNAYAAYYAPSVKGRFTISRDDSKNSIYLQMNSLKTEDTAVYYCHYVHYASASTLLPAEGVDAWGQGTTVTVSS VL 2: DIVMTQSPLSLPVTPGEPASISCQPSQEVVHMNRNTYLHWYQQKPGQAPRLLIYKVSNRFPGVPDRFSGSGSGTDFTLKISRVEAEDVGVYYCAQGTSHPFTFGQGTKLEIK
 |  |  |  |  |  | 110 nM | 0.00999 s⁻¹ | 90700 M⁻¹ s⁻¹ |  |  |  |  | H0883 (antibody, V domains shown, Dual-Ig with an Fc; also called DualAE27; dBBDu183H0883/dBBDu072L) VH: QVQLVESGGGLVQPGRSLRLSCAASGFTFSNAWMHWVRQAPGKGLEWVAQIKDKGNAYAAYYAPSVKGRFTISRDDSKNSIYLQMNSLKTEDTAVYYCRYVHYASASTLLPAFGVDAWGQGTTVTVSS VL: DIVMTQSPLSLPVTPGEPASISCQASQELVHMNRNTYLHWYQQKPGQAPRLLIYKVSNRFPGVPDRFSGSGSGTDFTLKISRVEAEDVGVYYCAQGTSVPFTFGQGTKLEIK
